Data from the supplement of paper PMC7877785.
± gives the uncertainty stated by the source.

Assay: self-splicing fitness, log relative to wild type (ln ratio); higher = more splicing; Tetrahymena group I intron in knt gene, E. coli kanamycin selection, DiMSum; sequences stand for … in CUCUCU…GGAGGGAAAAGUUAUCAGGCAUGCACCUGGUAGCUAGUCUUUAAACCAAUAGAUUGCAUCGGUUUAAAAGGCAAGACCGUCAAAUUGCGGGAAAGGGGUCAACAGCCGUUCAGUACCAAGUCUCAGGGGAAACUUUGAGAUGGCCUUGCAAAGGGUAUGGUAAUAAGCUGACGGACAUGGUCCUAACCACGCAGCCAAGUCCUAAGUCAACAGAUCUUCUGUUGAUAUGGAUGCAGUUCACAGACUAAAUGUCGGUCGGGGAAGAUGUAUUCUUCUCAUAAGAUAUAGUCGGACCUCUCCUUAAUGGGAGCUAGCGGAUGAAGUGAUGCAACACUGGAGCCGCUGGGAACUAAUUUGUAUGCGAAAGUAUAUUGAUUAGUUUUGGAGUACUCGUGGUCG
Method in brief: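 The eight P1ex-region nucleotides of an intron in the knt kanamycin-resistance gene on pET-22b(+) were all randomised and the library put into E. coli BL21(DE3). Six replicate transformations were grown overnight at 37°C or 30°C on LB agar with or without 25 μg/mL kanamycin, together with 100 μg/mL carbenicillin, 50 μM IPTG and 0.2% rhamnose. Colonies were pooled and amplicon-sequenced on an Illumina HiSeq 2500. Fitness from DiMSum is the error-weighted combination of wild-type-normalised replicate fold changes, kanamycin over none.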

| Sequence | self-splicing fitness (ln) (30 °C) | self-splicing fitness (ln) (37 °C) |
| --- | --- | --- |
| UCCAAGCAAUAUUACGGUAC | -4.3 ± 0.23 | -2.81 ± 0.24 |
| UCCAAGCAAUAUUACGGUCA | -0.259 ± 0.06 | 0.0746 ± 0.065 |
| UCCAAGCAAUAUUACGUGAA | -0.666 ± 0.074 | 0.295 ± 0.1 |
| UCCAAGCAAUAUUACGUGAU | -3.53 ± 0.12 | -1.31 ± 0.097 |
| UCCAAGCAAUAUUACGUGCG | -3.59 ± 0.15 | -1.68 ± 0.13 |
| UCCAAGCAAUAUUACGUGUU | -3.46 ± 0.15 | -1.85 ± 0.13 |
| UCCAAGCAAUAUUACGUUGC | -3.7 ± 0.17 | -2.41 ± 0.19 |
| UCCCAGCAAUAUUACGACCU | -2.88 ± 0.27 | -1.69 ± 0.35 |
| UCCCAGCAAUAUUACGACGC | -2.81 ± 0.19 | -0.519 ± 0.23 |
| UCCCAGCAAUAUUACGACUU | -3.04 ± 0.17 | -1.79 ± 0.14 |
| UCCCAGCAAUAUUACGAUGG | -3.71 ± 0.13 | -2.31 ± 0.15 |
| UCCCAGCAAUAUUACGCAAA | -2.54 ± 0.18 | -0.641 ± 0.14 |
| UCCCAGCAAUAUUACGCAAC | -3.01 ± 0.37 | -2.19 ± 0.37 |
| UCCCAGCAAUAUUACGCUCG | -2.99 ± 0.18 | -2.15 ± 0.29 |
| UCCCAGCAAUAUUACGGCAG | -4.36 ± 0.29 | -2.58 ± 0.2 |
| UCCCAGCAAUAUUACGGCGU | -0.605 ± 0.057 | 0.275 ± 0.071 |
| UCCCAGCAAUAUUACGGGCU | -1.71 ± 0.066 | -1.32 ± 0.087 |
| UCCCAGCAAUAUUACGGGGA | -3.53 ± 0.17 | -2.43 ± 0.16 |
| UCCCAGCAAUAUUACGGGGC | -2.72 ± 0.17 | -2.84 ± 0.22 |
| UCCCAGCAAUAUUACGGUAA | 0.0812 ± 0.099 | 0.262 ± 0.1 |
| UCCCAGCAAUAUUACGGUGG | -3.65 ± 0.15 | -2.5 ± 0.15 |
| UCCCAGCAAUAUUACGUGAA | 0.116 ± 0.045 | 0.582 ± 0.067 |
| UCCCAGCAAUAUUACGUGGC | -3.54 ± 0.15 | -2.92 ± 0.23 |
| UCCCAGCAAUAUUACGUUAA | -1.89 ± 0.093 | -0.696 ± 0.085 |
| UCCCAGCAAUAUUACGUUAU | -4.35 ± 0.18 | -2.47 ± 0.17 |

| Sequence | self-splicing fitness (ln) (30 °C) | self-splicing fitness (ln) (37 °C) |
| --- | --- | --- |
| UCCCAGCAAUAUUACGUUCA | -0.991 ± 0.093 | -0.824 ± 0.1 |
| UCCGAGCAAUAUUACGAGGA | -3.04 ± 0.25 | -2.5 ± 0.29 |
| UCCGAGCAAUAUUACGAUGA | -0.4 ± 0.068 | -0.0382 ± 0.079 |
| UCCGAGCAAUAUUACGAUGC | -1.93 ± 0.19 |  |
| UCCGAGCAAUAUUACGCCCU | -2.74 ± 0.31 |  |
| UCCGAGCAAUAUUACGCGCC | -2.88 ± 0.4 |  |
| UCCGAGCAAUAUUACGGAAG | -3.67 ± 0.44 | -1.82 ± 0.28 |
| UCCGAGCAAUAUUACGGAGC | -3.17 ± 0.25 | -2.67 ± 0.26 |
| UCCGAGCAAUAUUACGGAUA | -2.34 ± 0.25 | -2.61 ± 0.19 |
| UCCGAGCAAUAUUACGGAUC |  | -2.41 ± 0.39 |
| UCCGAGCAAUAUUACGGCGU | -1.17 ± 0.081 | -0.438 ± 0.11 |
| UCCGAGCAAUAUUACGGGCU | -4.07 ± 0.24 | -2.97 ± 0.2 |
| UCCGAGCAAUAUUACGGUAG | -3.6 ± 0.14 | -2.43 ± 0.15 |
| UCCGAGCAAUAUUACGGUUU | -3.42 ± 0.22 | -1.02 ± 0.14 |
| UCCGAGCAAUAUUACGUAAG | -4.92 ± 0.38 | -2.13 ± 0.25 |
| UCCGAGCAAUAUUACGUCAU | -3.59 ± 0.27 | -2.75 ± 0.44 |
| UCCGAGCAAUAUUACGUGAG | -2.83 ± 0.19 | -2.43 ± 0.23 |
| UCCGAGCAAUAUUACGUUGU | -2.89 ± 0.14 | -2.96 ± 0.22 |
| UCCUAGCAAUAUUACGAAUC |  | -2.17 ± 0.29 |
| UCCUAGCAAUAUUACGACCG | -3.3 ± 0.28 | -3.65 ± 0.34 |
| UCCUAGCAAUAUUACGACUU | -3.74 ± 0.46 | -2.74 ± 0.3 |
| UCCUAGCAAUAUUACGAGAA | -1.36 ± 0.25 | -0.965 ± 0.23 |
| UCCUAGCAAUAUUACGAGAC | -2.09 ± 0.33 | -1.71 ± 0.4 |
| UCCUAGCAAUAUUACGAGGU | -3.53 ± 0.19 | -1.45 ± 0.13 |
